Data on 2 molecules can be found in publication PMC3339974 (The Journal of Biological Chemistry, 2012).

In assay [1] the target is soluble mouse CD3ϵ ectodomain homodimer (mouse) (UniProt P22646).
Assay [2] concerns the target T1, soluble mouse CD3ϵ ectodomain homodimer (Mus musculus (strain )).
T1 chain: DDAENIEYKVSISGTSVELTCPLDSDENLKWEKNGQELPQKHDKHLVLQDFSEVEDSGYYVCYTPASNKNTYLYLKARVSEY
Kind of assay: crystal structure.

For orientation: stoichiometry N means the number of molecules, sites or subunits per partner or assembly.

“soluble mouse CD3ϵ ectodomain homodimer (from UniProt P22646 23-108) (domain or fragment)” displayed a stoichiometry N in assay [1] of 2.

B1: 2C11 Fab (Fab, V domains shown)
VH: EVQLVESGGGLVQPGKSLKLSCEASGFTFSGYGMHWVRQAPGRGLESVAYITSSSINIKYADAVKGRFTVSRDNAKNLLFLQMNILKSEDTAMYYCARFDWDKNYWGQGTMVTVSS
VL: DIQMTQSPSSLPASLGDRVTINCQASQDISNYLNWYQQKPGKAPKLLIYYTNKLADGVPSRFSGSGSGRDSSFTISSLESEDIGSYYCQQYYNYPWTFGPGTKLEIK
With B1, in assay [2], the binding result is “binds”.
